Experimental data published in US20230312753A1 (IMMUNORIZON, published 2023).

How the values were obtained:
[1] = biological target: T1, h5T4-His (recombinant human 5T4) (human, UniProt Q13641 32-355, limits assumed); experiment: ELISA on coated h5T4-His (FIG. 43B)
T1 construct: Bought protein; also called recombinant 5T4
T1 sequence (looked up): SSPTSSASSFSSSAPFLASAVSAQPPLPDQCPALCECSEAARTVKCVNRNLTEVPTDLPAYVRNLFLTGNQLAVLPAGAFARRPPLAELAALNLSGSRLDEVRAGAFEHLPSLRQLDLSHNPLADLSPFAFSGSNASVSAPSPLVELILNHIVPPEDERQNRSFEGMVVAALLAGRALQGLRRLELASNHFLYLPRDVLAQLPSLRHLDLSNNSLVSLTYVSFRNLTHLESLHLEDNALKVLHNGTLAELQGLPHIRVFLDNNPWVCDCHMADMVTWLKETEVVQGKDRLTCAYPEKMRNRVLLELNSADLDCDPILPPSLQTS
Description: (§1) Methods: ELISA binding of Tribody/ProTribody antibody constructs to antigens: Dilute target protein (hCD3epsilon-His (cat # 10977-H08S, supplier Sino Biological); h5T4-His (cat# 19845-H08H, supplier Sino Biological); NKG2A-CD94-ECD-hFc, Lot:20200724002, provided by CP; or NKG2D-ECD-hFc, Lot: 20200413002, provided by CP) into PBS with final concentration of 0.01 µg/mL for hCD3epsilon-His, 0.3 µg/mL for h5T4-His, 1 µg/mL for NKG2A-CD94-ECD-hFc and 0.7 µg/mL for hNKG2D-ECD-hFc respectively and coat 100 µL/well on ELISA plate (cat: 9018, supplier Corning) respectively. Incubate O/N, 4° C. The plates were blocked with 250 µL 1% BSA in PBST for 1 hr at 37° C.Wash 4 times with PBST. All the washes are done using Biotek (Elx 405). All the Tribody set antibodies were diluted to 400 nM and make 4-fold serially dilutions (12 points, including 0 point). Add 100 µL/well diluted antibody constructs solution to plate, incubate for 1 hr at 37° C.Wash 4 times with PBST. Add 100 µL/well anti-human kappa light chain-HRP (1:10000), incubate for 0.5 hr at 37° C. Wash 4 times with PBST. 100 µL/well of TMB substrate was added and incubated at room temperature for 5 min. 100 µL/well of 1N HCl to terminate reaction. Plates were read using ELISA plate reader at 450 nm wavelength (instrunet SpectraMax M5e). Data Analysis was performed using Graphpad prism 5 software by using nonlinear regression (curve fit): log (agonist) vs. response, agonist is antibody concentration (nM) and response is OD value.

[2] = biological target: T2, NKG2A-CD94-ECD-hFc (human, UniProt P26715 94-233; Q13241 32-179, limits assumed); experiment: ELISA on coated NKG2A-CD94-ECD-hFc (FIG. 43C)
T2 construct: extracellular domain; Lot 20200724002, 'provided by CP'; the two-chain layout here is only the reading of the name; also called human NKG2A (recombinant); NKG2A antigen; not shown: human Fc (hFc)
Description: as §1

[3] = biological target: T3, NKG2A on NK92 cells (endogenous) (UniProt P26715 1-233, limits assumed); experiment: FACS on NK92 cells (FIG. 45C)
T3 construct: whole, on cells
Description: (§2) Suspension cultured cells was harvested directly, and adherent cell were digested using TrypLE Express Enzyme (cat: 12604-013, supplier Life technologies). Centrifuge at 1000 rpm for 5 min and discard the supernatant. Cells are suspended at a concentration of 2×10⁶/mL in FACS buffer (2% FBS in PBS) and add 100 µL/well of cell suspension to the plate (cat #3799, supplier Corning). Centrifuging the plates at 2000 rpm for 5 min and discard the supernatant. Re-suspend the cells in 100 µL/well of Tribody set antibodies (400 nM start, 4-fold dilution, 8 point including 0 point) and incubate the plate for 60 min at 4° C. Centrifuge the plate at 2000 rpm, 4° C. for 5 min and discard supernatant. Then wash the cells 3 times with 170 µL FACS buffer. Re-suspend the cells at 100 µL/well with secondary antibody (goat anti-human Ig Fab-FITC, Cat # 2085-02, Southern biotech) with 1:400 dilution and incubate the plate for 30 min at 4° C. in dark. Centrifuge the plate at 2000 rpm, 4° C. for 5 min and discard supernatant. […] The fluorescence intensity of the staining was measured using flow cytometer (BD, FACSVerse). The geometric mean fluorescence intensity (GMFI; median fluorescence intensity (MFI)) of set antibodies staining was calculated (BD FACSuite software). Dose-response curves were generated and EC50s for thetrispecific variants binding were calculated using GraphPad Prism software.

[4] = biological target: T4, 5T4 on cells (NCI-H226 endogenous; CHO over-expressing 5T4) (UniProt Q13641 32-420, limits assumed); experiment: FACS on CHO cells over-expressing ectopic 5T4 (FIG. 45D)
T4 construct: whole, on cells
T4 sequence (looked up): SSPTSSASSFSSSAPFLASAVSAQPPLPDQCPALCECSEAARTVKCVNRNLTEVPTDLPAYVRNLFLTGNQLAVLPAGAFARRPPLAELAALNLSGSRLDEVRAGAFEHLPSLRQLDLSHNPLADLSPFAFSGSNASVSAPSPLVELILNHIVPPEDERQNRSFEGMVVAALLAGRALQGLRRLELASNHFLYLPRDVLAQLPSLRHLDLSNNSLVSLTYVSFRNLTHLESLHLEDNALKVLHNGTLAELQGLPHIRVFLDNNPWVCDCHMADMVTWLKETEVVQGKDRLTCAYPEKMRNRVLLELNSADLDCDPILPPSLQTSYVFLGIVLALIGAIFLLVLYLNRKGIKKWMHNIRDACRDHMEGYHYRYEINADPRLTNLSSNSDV
Description: (§3) Then wash the cells 3 times with 170 µL FACS buffer. Re-suspend the cells at 100 µL/well with secondary antibody (goat anti-human Ig Fab-FITC, Cat # 2085-02, Southern biotech) with 1:400 dilution and incubate the plate for 30 min at 4° C. in dark. Centrifuge the plate at 2000 rpm, 4° C. for 5 min and discard supernatant. Then wash the cells 3 times with FACS buffer and analyze the sample with FACS verse. The fluorescence intensity of the staining was measured using flow cytometer (BD, FACSVerse). The geometric mean fluorescence intensity (GMFI; median fluorescence intensity (MFI)) of set antibodies staining was calculated (BD FACSuite software). Dose-response curves were generated and EC50s for thetrispecific variants binding were calculated using GraphPad Prism software.
(§4) Results: The expressed trispecific constructs were analyzed for their binding to cells expressing endogenous CD3ε, 5T4 and NKG2A/NKG2D. […] (FIG. 45F).

[5] = biological target: T5, NKG2A/CD94 on CHO cells (CHOK1-NKG2A-CD94) (human, UniProt P26715 1-233; Q13241 1-179, limits assumed); experiment: FACS on CHO cells over-expressing NKG2A/CD94 (FIG. 45E)
T5 construct: whole, on cells; also called CHO cells over-expressing NKG2A/CD94; CHO cell line over expressing ectopic NKG2A
Description: as §3, §4

[6] = biological target: T6, human CD3 epsilon on cells (Jurkat T cells, endogenous) (human, UniProt P07766 23-207); experiment: FACS on Jurkat T cells, endogenous hCD3ε (FIG. 45A)
T6 construct: whole, on cells; On cells CD3 epsilon stands in the TCR/CD3 complex; only the epsilon chain is named as target; also called hCD3ε on Jurkat; CD3ε expressing cells
Description: as §2, with “buffer.” for “buffer. Re-suspend the cells at 100 µL/well with secondary antibody (goat anti-human Ig Fab-FITC, Cat # 2085-02, Southern biotech) with 1:400 dilution and incubate the plate for 30 min at 4° C. in dark. Centrifuge the plate at 2000 rpm, 4° C. for 5 min and discard supernatant.”
Results: The expressed trispecific constructs were analyzed for their binding to cells expressing endogenous CD3ε, 5T4 and NKG2A/NKG2D.

[7] = biological target: T7, hCD3epsilon-His (recombinant human CD3 epsilon) (human, UniProt P07766 23-126); experiment: ELISA on coated hCD3epsilon-His (FIG. 43A)
T7 construct: Bought protein; also called recombinant hCD3ε protein; human CD3ε
Description: as §1, with “Data Analysis was performed using Graphpad prism 5 software by using nonlinear regression (curve fit): log (agonist) vs. response, agonist is antibody concentration (nM) and response is OD value.” left out

T6 sequence (P07766 23-207): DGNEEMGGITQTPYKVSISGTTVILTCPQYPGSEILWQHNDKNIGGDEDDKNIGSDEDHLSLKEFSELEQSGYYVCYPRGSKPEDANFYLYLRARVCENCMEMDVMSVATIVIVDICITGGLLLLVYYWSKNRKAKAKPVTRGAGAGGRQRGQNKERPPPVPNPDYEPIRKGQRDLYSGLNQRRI
T7 sequence (P07766 23-126 limits assumed): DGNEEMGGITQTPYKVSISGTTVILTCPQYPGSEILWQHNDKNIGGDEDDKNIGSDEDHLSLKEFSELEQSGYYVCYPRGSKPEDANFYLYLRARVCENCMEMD
T3 sequence (P26715 whole entry): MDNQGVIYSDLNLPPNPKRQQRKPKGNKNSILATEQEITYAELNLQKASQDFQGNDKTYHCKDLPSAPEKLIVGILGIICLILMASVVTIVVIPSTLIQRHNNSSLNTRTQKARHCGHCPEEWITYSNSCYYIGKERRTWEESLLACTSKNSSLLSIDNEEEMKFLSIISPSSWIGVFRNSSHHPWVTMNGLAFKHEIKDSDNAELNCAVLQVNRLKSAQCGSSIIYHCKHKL
T5 sequence (P26715 whole entry, chain 1 of 2): as the sequence (P26715 whole entry) above
T5 sequence (Q13241 whole entry, chain 2 of 2): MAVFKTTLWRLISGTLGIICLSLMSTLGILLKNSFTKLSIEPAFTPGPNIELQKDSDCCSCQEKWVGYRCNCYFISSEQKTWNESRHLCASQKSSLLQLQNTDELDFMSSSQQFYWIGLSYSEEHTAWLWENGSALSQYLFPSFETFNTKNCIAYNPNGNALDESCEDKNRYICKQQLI
T2 sequence (P26715 94-233 limits assumed, chain 1 of 2): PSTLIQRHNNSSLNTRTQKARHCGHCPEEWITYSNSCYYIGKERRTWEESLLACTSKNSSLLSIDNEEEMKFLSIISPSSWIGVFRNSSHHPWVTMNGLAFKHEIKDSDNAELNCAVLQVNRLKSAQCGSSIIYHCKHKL
T2 sequence (Q13241 32-179 limits assumed, chain 2 of 2): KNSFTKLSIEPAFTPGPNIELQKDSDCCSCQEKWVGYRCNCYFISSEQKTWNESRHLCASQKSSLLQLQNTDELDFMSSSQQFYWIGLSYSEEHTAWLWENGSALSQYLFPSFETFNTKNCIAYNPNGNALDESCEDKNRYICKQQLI

B1: IM-1093 Tribody, NKG2A mutant variant (other)
heavy: GGSGGSEVQLVESGGGLVQPGGSLRLSCAASGFTFNTYAMNWVRQAPGKGLEWVARIRSKYNNYATYYADSVKDRFTISRDDSKNTLYLQMNSLRAEDTAVYYCVRHGNFGNSYVSWFAYWGQGTMVTVSSASTKGPSVFPLAPSSKSTSGGTAALGCLVKDYFPEPVTVSWNSGALTSGVHTFPAVLQSSGLYSLSSVVTVPSSSLGTQTYICNVNHKPSNTKVDKRVEPKSCPPCGGGGSDIQMTQSPSSLSASVGDRVTITCRASENIYSALAWYQQKPGKAPKLLIYNAKTLAEGVPSRFSGSGSGTDFTLTISSLQPEDFATYYCQHHAGTPRTFGGGTKVEIKGGGGSGGGGSGGGGSGGGGSQVQLVQSGAEVKKPGASVKVSCKASGYTFTSYWMNWVRQAPGQGLEWMGRIDPYDSETHYAQKLQGRVTMTTDTSTSTAYMELRSLRSDDTAVYYCARGGYDFDVDTLYWFFDVWGQGTTVTVSS
light: GGSGGSQAVVTQEPSLTVSPGGTVTLTCRSSTGAVTTSNYANWVQQKPGQAPRGLIGGTNKRAPGTPARFSGSLLGGKAALTLSGVQPEDEAEYYCALWYSNLWVFGGGTKLTVLGQPKAAPSVTLFPPSSEELQANKATLVCLISDFYPGAVTVAWKADSSPVKAGVETTTPSKQSNNKYAASSYLSLTPEQWKSHRSYSCQVTHEGSTVEKTVAPTECPPCSGGGSDIQMTQSPSSLSASVGDRVTITCRASQGISNYLAWFQQKPGKAPKSLIYRANRLQSGVPSRFSGSGSGTDFTLTISSLQPEDVATYYCLQYDDFPWTFGQGTKLEIKGGGGSGGGGSGGGGSGGGGSQVQLVQSGAEVKKPGASVKVSCKASGYTFTSFWMHWVRQAPGQGLEWMGRIDPNRGGTEYNEKAKSRVTMTADKSTSTAYMELSSLRSEDTAVYYCAGGNPYYPMDYWGQGTTVTVSS
notes: also called NKG2A mutated Tribody
EC50 [1]: 12 nM | binding result [2]: no binding (tested: dilution series from 400 nM) | binding result [3]: no binding (tested: dilution series from 400 nM) | EC50 [4]: 1.3 nM | binding result [5]: no binding (tested: dilution series from 400 nM) | EC50 [6]: 1.3 nM | EC50 [7]: 1.84 nM
